According to US20090082270A1 (ACCELERON PHARMA, published 2009):

T1: human Cerberus (human, UniProt O95813 18-267, limits assumed)
T1 construct: it includes the native leader
T1 sequence: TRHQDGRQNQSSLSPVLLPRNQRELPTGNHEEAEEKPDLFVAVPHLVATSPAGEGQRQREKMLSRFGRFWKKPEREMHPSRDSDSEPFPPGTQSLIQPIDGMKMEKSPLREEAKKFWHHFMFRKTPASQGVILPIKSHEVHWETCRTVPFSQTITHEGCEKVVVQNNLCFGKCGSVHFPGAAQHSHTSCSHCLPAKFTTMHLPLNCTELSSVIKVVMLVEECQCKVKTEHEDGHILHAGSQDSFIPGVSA

B1: Activin A (ligand, UniProt P08476 311-426, looked up)
chain: GLECDGKVNICCKKQFFVSFKDIGWNDWIIAPSGYHANYCEGECPSHIAGTSGSSLSFHSTVINHYRMRGHSPFANLKSCCVPTKLRPMSMLYYDDGQNIIKKDIQNMIVEECGCS
B2: Human Coco, full length, Fc (TGGG linker and mFc) (Fc fusion)
chain: GRPEPQSPRPQSWAAANQTWALGPGALPPLVPASALGSWKAFLGLQKARQLGMGRLQRGQDEVAAVTLPLNPQEVIQGMCKAVPFVQVFSRPGCSAIRLRNHLCFGHCSSLYIPGSDPTPLVLCNSCMPARKRWAPVVLWCLTGSSASRRRVKISTMLIEGCHCSPKATGGGTHTCPPCPAPELLGGPSVFLFPPKPKDTLMISRTPEVTCVVVDVSHEDPEVKFNWYVDGVEVHNAKTKPREEQYNSTYRVVSVLTVLHQDWLNGKEYKCKVSNKALPVPIEKTISKAKGQPREPQVYTLPPSREEMTKNQVSLTCLVKGFYPSDIAVEWESNGQPENNYKTTPPVLDSDGSFFLYSKLTVDKSRWQQGNVFSCSVMHEALHNHYTQKSLSLSPGK
notes: Tested as conditioned medium; also called Coco-mFc; human Coco-mFc

Experiments:
[1] = target: T1, human Cerberus; test: "similar experiments" to the A-204 reporter gene assay; method not further described
[2] = target: B1; test: as above

| binding result [1] | binding result [2] | Binder |
| --- | --- | --- |
| no binding |  | B1 |
|  | no binding | B2 |
